Laboratory results: US20180016325

B1: staphopain B (protein)
chain: DQVQYENTLKNFKIREQQFDNSWCAGFSMAALLNATKNTDTYNAHDIMRTLYPEVSEQDLPNCATFPNQMIEYGKSQGRDIHYQEGVPSYNQVDQLTKDNVGIMILAQSVSQNPNDPHLGHALAVVGNAKINDQEKLIYWNPWDTELSIQDADSSLLHLSFNRDYNWYGSMIGY
B2: staphopain A (protein)
chain: YNEQYVNKLENFKIRETQGNNGWCAGYTMSALLNATYNTNKYHAEAVMRFLHPNLQGQQFQFTGLTPREMIYFEQTQGRSPQLLNRMTTYNEVDNLTKNNKGIAILGSRVESRNGMHAGHAMAVVGNAKLNNGQEVIIIWNPWDNGFMTQDAKNNVIPVSNGDHYQWYSSIYGY

Assays:
[1] = biological target: MP-LAFG-PABC-(piperazinoBOR) LA-104 as antibody conjugate AAC-193
[2] = biological target: thioFAB 4497 MP-LAFAA-QSY7
[3] = biological target: thioFAB S4497-MC-GGAFAGGG-(pipBOR)
[4] = biological target: thioFAB 4497 MP-LAFGA-QSY7

Row | Protein | Percent cleavage pH 5 [1] | Percent cleavage pH 7.2 [1] | Percent cleavage pH 7.2 [2] | cleavage of the linker (LC-MS) [3] | Percent cleavage pH 7.2 [4] | percent cleavage at pH 7.2 [1]
1 | B1 | 100% | 100% | 100% | Staphopain B was found to cleave the linker at the same site as the active protease purified from Wood46 supernatant | 100% | 
2 | B2 | 100% | 46% |  |  |  | Staphopain A showed 100% cleavage at pH5 and 64% cleavage at pH 7.2
